From article PMC10261046, “Mechanism of small molecule inhibition of Plasmodium falciparum myosin A informs antimalarial drug design” (Nature Communications, 2023)

What was measured:
[1] = molecular target: Skeletal muscle actin (chicken), filaments (chicken, UniProt P68139 1-377); assay: count of fluorescent actin filaments on surface-immobilized myosin (modified in vitro motility assay); PfMyoA surface-immobilized; same buffer, 0% methylcellulose, 30 °C; no nucleotide (NF); with or without KNX-002; conditions: both partners purified
[2] = molecular target: T1, Full-length PfMyoA heavy chain WT (Plasmodium falciparum, UniProt Q8IDR3 1-818); assay: crystal structure; PfMyoA/ELC/MTIP-ΔN co-crystallized with or without KNX-002 and with or without ATPγS; hanging drop, 4 °C, 2.0 M ammonium sulfate, 0.1 M sodium HEPES pH 7.5, 4% PEG400; conditions: both partners purified
T1 sequence (heavy): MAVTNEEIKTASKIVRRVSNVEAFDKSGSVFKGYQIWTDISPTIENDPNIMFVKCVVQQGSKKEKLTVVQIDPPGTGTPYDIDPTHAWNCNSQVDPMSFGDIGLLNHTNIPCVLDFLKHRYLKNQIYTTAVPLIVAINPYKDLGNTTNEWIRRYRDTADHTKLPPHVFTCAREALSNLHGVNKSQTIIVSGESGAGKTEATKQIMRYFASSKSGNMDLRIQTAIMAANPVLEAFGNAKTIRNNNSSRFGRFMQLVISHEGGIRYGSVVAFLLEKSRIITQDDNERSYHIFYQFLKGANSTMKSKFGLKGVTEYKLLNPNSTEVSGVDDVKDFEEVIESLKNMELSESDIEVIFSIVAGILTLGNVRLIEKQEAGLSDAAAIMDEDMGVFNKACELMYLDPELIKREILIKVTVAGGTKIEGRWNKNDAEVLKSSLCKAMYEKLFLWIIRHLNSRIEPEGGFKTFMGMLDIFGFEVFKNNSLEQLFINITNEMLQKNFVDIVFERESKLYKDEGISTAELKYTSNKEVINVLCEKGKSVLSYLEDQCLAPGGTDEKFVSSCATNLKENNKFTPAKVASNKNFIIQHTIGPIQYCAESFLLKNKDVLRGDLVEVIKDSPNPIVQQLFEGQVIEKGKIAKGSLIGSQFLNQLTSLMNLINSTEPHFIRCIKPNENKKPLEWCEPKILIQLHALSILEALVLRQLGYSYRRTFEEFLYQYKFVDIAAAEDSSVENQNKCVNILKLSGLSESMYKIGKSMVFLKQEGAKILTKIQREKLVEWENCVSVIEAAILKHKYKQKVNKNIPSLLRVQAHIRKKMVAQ

B1: PfMyoA (full length Plasmodium falciparum myosin A heavy chain WT with bound light chains PfELC and PfMTIP) (complex)
chain 1: T1 sequence (heavy)
chain 2: MASDMEEKFREAFILFSSCSDHIEMYKFFELMNSFGIILTNDEKAALPNDINMDYWLNFAKKHYNYEQPFKHINNVNEQNTNVQIKIDNFLGIMKALDTRLTESDLNILLQITNPENKSTLNLKTVSQKLTESI
chain 3: MKQECNVCYFNLPDPESTLGPYDNELNYFTWGPGFEYEPEPQRKPLSIEESFENSEESEESVADIQQLEEKVDESDVRIYFNEKSSGGKISIDNASYNARKLGLAPSSIDEKKIKELYGDNLTYEQYLEYLSICVHDKDNVEELIKMFAHFDNNCTGYLTKSQMKNILTTWGDALTDQEAIDALNAFSSEDNIDYKLFCEDILQ
notes: also called class XIV myosin A; M.ADP; copies: + +
- binding result [1]: binds

B2: PfELC (natural protein)
light: B1 chain 2
notes: also called essential light chain
- binding result [2]: binds

B3: MTIP-ΔN (PfMTIP lacking residues 1-E60) (domain or fragment)
light: SVADIQQLEEKVDESDVRIYFNEKSSGGKISIDNASYNARKLGLAPSSIDEKKIKELYGDNLTYEQYLEYLSICVHDKDNVEELIKMFAHFDNNCTGYLTKSQMKNILTTWGDALTDQEAIDALNAFSSEDNIDYKLFCEDILQ
notes: also called ΔN-MTIP
- binding result [2]: binds
